{
  "source": "IntAct's records for PubMed 31296862",
  "parents": {"B1": {"name": "Type IV methyl-directed restriction enzyme EcoKMcrB subunit (Escherichia coli (strain K12)), P15005 (parent)", "chain": "MESIQPWIEKFIKQAQQQRSQSTKDYPTSYRNLRVKLSFGYGNFTSIPWFAFLGEGQEASNGIYPVILYYKDFDELVLAYGISDTNEPHAQWQFSSDIPKTIAEYFQATSGVYPKKYGQSYYACSQKVSQGIDYTRFASMLDNIINDYKLIFNSGKSVIPPMSKTESYCLEDALNDLFIPETTIETILKRLTIKKNIILQGPPGVGKTFVARRLAYLLTGEKAPQRVNMVQFHQSYSYEDFIQGYRPNGVGFRRKDGIFYNFCQQAKEQPEKKYIFIIDEINRANLSKVFGEVMMLMEHDKRGENWSVPLTYSENDEERFYVPENVYIIGLMNTADRSLAVVDYALRRRFSFIDIEPGFDTPQFRNFLLNKKAEPSFVESLCQKMNELNQEISKEATILGKGFRIGHSYFCCGLEDGTSPDTQWLNEIVMTDIAPLLEEYFFDDPYKQQKWTNKLLGDS", "partner": "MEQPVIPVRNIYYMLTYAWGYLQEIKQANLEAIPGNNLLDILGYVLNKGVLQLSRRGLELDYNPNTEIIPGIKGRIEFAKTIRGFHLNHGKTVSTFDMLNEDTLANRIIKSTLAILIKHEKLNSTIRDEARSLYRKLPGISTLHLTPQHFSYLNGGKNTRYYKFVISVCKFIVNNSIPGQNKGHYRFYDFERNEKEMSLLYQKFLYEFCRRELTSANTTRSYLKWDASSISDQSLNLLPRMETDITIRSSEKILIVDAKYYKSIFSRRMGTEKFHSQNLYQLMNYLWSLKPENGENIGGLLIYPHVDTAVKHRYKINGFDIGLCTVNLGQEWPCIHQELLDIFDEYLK"}},
  "data": [
    {"variants_of": "B1", "conditions": "with mcrc_ecoli mcrC", "values": [
      {"variant": "R348A", "effect of a mutation on the interaction": "disrupting interaction strength"},
      {"variant": "E298A", "effect of a mutation on the interaction": "with no effect"},
      {"variant": "R349A", "effect of a mutation on the interaction": "disrupting interaction strength"}
    ]}
  ]
}
